The assay addresses recombinant human protective protein/cathepsin A (rhPPCA), 54-kDa precursor form (human). Nature of the assay: SEC.

Consider “recombinant human protective protein/cathepsin A (rhPPCA), 54-kDa precursor form (enzyme)”, for which the stoichiometry N was found to be 2.

The stoichiometry N is the number of molecules, sites or subunits per partner or assembly.

The values above are taken from publication PMC7782203.
